The values that follow come from publication PMC3648548.

This experiment has as its target GLIC NQN mutant (D91N, E177Q, D178N), pentameric ligand-gated ion channel from Gloeobacter violaceus (Gloeobacter violaceus). Description: crystal structure; GLIC-NQN mutant in 0.01% (w/v) n-tetradecyl-β-D-maltoside, ~10 mg/ml; crystallization conditions as for GLIC and GLIC-ketamine; molecular replacement with 4F8H; five subunits in the asymmetric unit.

Turning to “GLIC NQN mutant (D91N, E177Q, D178N), pentameric ligand-gated ion channel from Gloeobacter violaceus (natural protein)”, the stoichiometry N worked out at 5.

In general, stoichiometry N refers to a count of units in the complex or per binding partner.
